For series [1] the following is noted: in vivo, iv; cited from earlier work.
The subject of series [2] is PC12 cells. The series can be described thus: Bioactivity of released NGF: differentiation of PC12 cells into neurons. Format: cell-based, rat. The note with it: positive control, fresh NGF at 400 ng/ml.
The subject of series [3] is PC12 cells. The note with it: Thoenen and Bard; cited from earlier work.
For series [4] the following is noted: rat, in vivo; cited from earlier work.

Take PDGF: the biologic half-life in series [1] is reported as 2 minutes.

With “NGF: Recombinant human n-nerve growth factor (NGF) from R&D Systems”, the “percentage of PC12 cells induced to differentiate” value in the series on PC12 cells [2] is reported as 20-55%. The “threshold for induction of PC12 cell differentiation” value with PC12 cells [3] is on record as “around 0.5 ng/ml”. In addition, the elimination half-life entry in series [4] is reported as “less than 5 hours”.

With bFGF: basic fibroblast growth factor, the biologic half-life in series [1] is 3 minutes.
